Reference: US20170267778A1 (ADC THERPEUTICS S A, published 2017)

B1: Ab1 (antibody, V domains shown)
VH: QVQLVQSGAEVKKTGSSVKVSCKASGYTFTDHAIHWVRQAPGQALEWMGHFSPGNTDIKYNDKFKGRVTLTVDRSMSTAYMELSSLRSEDTAMYYCKTSTFFFDYWGQGTMVTVSS
VL: DIVMTQSPDSLAVSLGERATINCKSSQSLLNSGDQKNYLTWYQQKPGQPPKLLIYWASTRESGVPDRFSGSGSGTDFTLTISSLQAEDVAVYYCQNDYSYPLTFGQGTKVEIK
notes: Expressed as human IgG1/kappa from pFUSE-CHIg-hG1 and pFUSE2-CLIg-hk vectors; also called 5E5RHA8 / 5E5RKA
B2: Ab3 (antibody, V domains shown)
VH: EVQLVESGAEVKKPGASVEVSCQASGYTFTDHAIHWVRQAPGQGLEWMGHFSPGNTDIKYNDKFKGRVTMTVDRSINTAYMELRRLRSDDTAVYYCKTSTFFFDYWGQGTMVTVSS
VL: B1 VL
notes: Expressed as human IgG1/kappa from pFUSE-CHIg-hG1 and pFUSE2-CLIg-hk vectors; also called 5E5RHC9 / 5E5RKA
B3: Mouse 5E5 (antibody, V domains shown)
VH: QVQLQQSDAELVKPGSSVKISCKASGYTFTDHAIHWVKQKPEQGLEWIGHFSPGNTDIKYNDKFKGKATLTVDRSSSTAYMQLNSLTSEDSAVYFCKTSTFFFDYWGQGTTLTVSS
VL: DIVMTQSPSSLTVTAGEKVTMICKSSQSLLNSGDQKNYLTWYQQKPGQPPKLLIFWASTRESGVPDRFTGSGSGTDFTLTISSVQAEDLAVYYCQNDYSYPLTFGAGTKLELK
notes: V regions were subcloned into pFUSE-CHIg-hG1 (human IgG1) and pFUSE2-CLIg-hk (human kappa) vectors and expressed in HEK293 cells; also called mouse 5E5 antibody; 5E5VH/5E5VK
B4: Ab5 (antibody, human IgG1, V domains shown)
VH: EVQLVQSGAEVKKPGESLKISCKISGYIFTDHAIHWVRQMPGKGLEWMGHFSPGNTDIKYNDKFKGQVTLSVDRSINTAYLQWSSLKASDTAIYFCKTSTFFFDYWGQGTRVTVSS
VL: DIVMTQSPLSLPVTPGEPASISCKSSQSLLNSGDQKNYLTWYLQKPGQSPQLLIYWASTRESGVPDRFSGSGSGTDFTLKISRVEAEDVGVYYCQNDYSYPLTFGGGTKVEIK
notes: Expressed as human IgG1/kappa from pFUSE-CHIg-hG1 and pFUSE2-CLIg-hk vectors; also called 5E5RHB10 / 5E5RKB
B5: Ab6 (antibody, human IgG1, V domains shown)
VH: B2 VH
VL: B4 VL
notes: Expressed as human IgG1/kappa from pFUSE-CHIg-hG1 and pFUSE2-CLIg-hk vectors; also called 5E5RHC9 / 5E5RKB
B6: Ab2 (antibody, V domains shown)
VH: B4 VH
VL: B1 VL
notes: Expressed as human IgG1/kappa from pFUSE-CHIg-hG1 and pFUSE2-CLIg-hk vectors; also called 5E5RHB10 / 5E5RKA
B7: Ab4 (antibody, human IgG1, V domains shown)
VH: B1 VH
VL: B4 VL
notes: Expressed as human IgG1/kappa from pFUSE-CHIg-hG1 and pFUSE2-CLIg-hk vectors; also called 5E5RHA8 / 5E5RKB

The binders below were run against T1, 16TR-MUC1-Tn (human, UniProt P15941 126-445, limits assumed, Tn glycoform (GalNAcα1-O-Ser/Thr); glycosylated sites of the reagent not stated) (assay: Tn-MUC1 binding ELISA (protocol 4), plate-coated 16TR-MUC1-Tn).
T1 construct: domain: 16TR; also called Tn-MUC1; TnMUC1
T1 sequence (P15941 126-445 limits assumed): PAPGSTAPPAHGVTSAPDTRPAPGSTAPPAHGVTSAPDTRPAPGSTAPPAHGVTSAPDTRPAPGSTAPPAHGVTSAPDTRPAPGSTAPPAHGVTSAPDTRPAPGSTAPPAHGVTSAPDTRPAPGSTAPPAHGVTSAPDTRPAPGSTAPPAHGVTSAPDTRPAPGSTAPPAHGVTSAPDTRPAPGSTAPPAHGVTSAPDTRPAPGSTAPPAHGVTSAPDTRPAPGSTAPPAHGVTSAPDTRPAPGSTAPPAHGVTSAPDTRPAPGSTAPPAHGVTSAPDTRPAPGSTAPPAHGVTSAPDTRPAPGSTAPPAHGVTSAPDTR

How did the EC50 turn out when B1 was run?
Its EC50 is 0.0246 µg/mL.

For B2, which EC50 is on record?
Its EC50 is 0.0615 µg/mL.

Which EC50 does the source give for B3 here?
The EC50 was 0.0311 µg/mL.

B4 was tested. Which EC50 did it give?
The EC50 was 0.0269 µg/mL.

With B5 as the binder, how does the EC50 read?
The EC50 was 0.0198 µg/mL.

How did the EC50 turn out when B6 was run?
The EC50 was 0.0345 µg/mL.

How did the EC50 turn out when B7 was run?
The EC50 was 0.0755 µg/mL.
